Data: patent publication US20230285520A1, “DEVELOPMENT OF A NEW ENGINEERED TOBACCO ETCH VIRUS (TEV) PROTEASE ACTIVABLE IN THE CYTOSOL OR SECRETORY PATHWAY” (Università Cattolica del Sacro Cuore, priority 2020, published 2023)

How the values were obtained:
[1] = target: pro-TEVcs-BDNF (HA-pro-TEVcs-BDNF-Flag-SEP), P23560
CFP-TEVcs-YFP = assay: Cleavage of CFP-TEVcs-YFP substrate in the cytosol of transfected HEK293T cells (Western blot); assay type: cell-based
Source text: Enzymatic Activity of Unica-TEV in Vital Cells • 13) Use CFP-TEVcs-YFP synthetic recombinant protein as substrate;
This artificial construct has two fluorophores conjugated by the cleavage sequence recognized by TEV (TEVcs). AntiGFP (Biolegend) antibody was used to verify cleavage of CFP-TEVcs-YFP by unica-TEV.
In order to do it, HEK293T cells were transfected (PEI MAX—Polysciences, Inc.) with the plasmids codifying constitutively active wild-type TEV (pcDNA-TEV), and engineered TEV with UniRapR (pcDNA-unica-TEV) and left to grow for 24-48 h at 37° C., 5% CO2.
For both of them, CFP-TEVcs-YFP was co-transfected.
After 24h the cells were treated for 1-3 h with rapamycin (1 μM) or DMSO as control. The cells were washed with cold PBS and lysed with lysis buffer containing rapamycin (1 μM) or DMSO. 10% of the volume of samples was prepared (addition of 2× Laemmli protein sample buffer+boiling for 5 min) for the electrophoretic analysis on gel of SDS-polyacrylamide.

[2] = system: pro-TEVcs-BDNF human recombinant; assay: Cleavage/maturation of pro-TEVcs-BDNF in transfected HEK293T cells (Western blot); assay type: cell-based
pro-TEVcs-BDNF = assay: In vitro protease test after immunoprecipitation of pro-TEVcs-BDNF and unica-TEV; assay type: biochemical; details: in presence of rapamycin; SDS-PAGE
[3] = mutations I138T, S153N and T180A; relative to wild-type TEV; cited from earlier work
[4] = system: hippocampal organotypic sections; assay: ERK phosphorylation in hippocampal organotypic sections treated with purified mature BDNF; assay type: cell-based, rat; details: hippocampal organotypic sections treated for 30 minutes, Western blot
Experimental: HEK293T cells were transfected (PEI MAX—Polysciences, Inc.) with the plasmids codifying for unica-secTEV (pcDNA-unica-secTEV-SV5) and pro-TEVcs-BDNF (HA-pro-TEVcs-BDNF-Flag-SEP) and left for 24 h at 37° C., 5% CO2.
After 24 h the cells were treated for 1-3 h with rapamycin (1 μM) or DMSO as control. The cells were washed with cold PBS and lysed with lysis buffer containing rapamycin (1 μM) or DMSO. The lysate was immunoprecipitated with FLAG-M2-beads for 1 h and subsequently FLAG peptide (sigma F3290-4 mg) was added. After 1 h the beads were removed by Micro bio-spin Colums®—Bio-Rad. The eluted protein was kept at −20° C. Once quantified by commercially available ELISA kits its biological effect was tested as described in FIG. 6.
In order to test the biological activity of mature BDNF obtained with the chemogenetic strategy in neurons, BDNF was immunoprecipitated and purified by HEK293T cells co-transfected with unica-secTEV and treated with rapamycin. […] In fact, BDNF biochemical features, including the positive charges on its surface, prevent the spreading thereof and keep its action locally at level of synapses. This feature obstructs even the effectiveness of injections of purified BDNF as therapeutic strategy. […]

TrkB = assay: ERK phosphorylation in cells expressing pro-TEVcs-BDNF, unica-secTEV and TrkB-mGFP; assay type: cell-based; details: chemogenetic activation of unica-secTEV; co-expressed TrkB-mGFP
Source text: In order to evaluate if mature BDNF obtained after activation of unica-secTEV was able to bind and activate its TrkB endogenous target receptor, pro-TEVcs-BDNF was expressed, unica-secTEV with TrkB-mGFP.

CA1 pyramidal neurons = assay: Dendritic spines of CA1 pyramidal neurons in transfected organotypic hippocampal sections; assay type: cell-based, rats; details: unica-secTEV activated with rapamycin for 24 h
Source text: In order to test the biological activity of mature BDNF obtained with the chemogenetic strategy in neurons, BDNF was immunoprecipitated and purified by HEK293T cells co-transfected with unica-secTEV and treated with rapamycin. […] In fact, BDNF biochemical features, including the positive charges on its surface, prevent the spreading thereof and keep its action locally at level of synapses. This feature obstructs even the effectiveness of injections of purified BDNF as therapeutic strategy. Since the extracellular application could involve both sides, even the exogenous application of purified BDNF is not useful in sectioning the roles of pre- and postsynaptic release. […] These gene approaches involve the deletion both of proBDNF and BDNF, the contribution of each form to the observed effect cannot be distinguished. The chemogenetic strategy developed by the inventors to control the protein cleavage is useful even to evaluate the specific autocrine action of BDNF inducible intracellular maturation in CA1 pyramidal neurons. In order to monitor BDNF specific effects in the postsynaptic neurons, organo-typical sections containing the hippocampus of rats with unica-secTEV, pro-TEVcs-BDNF and dsRed2 were transfected ballistically to display in a fluorescent way CA1 pyramidal neurons. After 48 h, unica-secTEV with rapamycin was activated for 24 h.

TMD-TEVcs-tTA = TMD-TEVcs-tTA / tetO-EGFP reporter expression in HEK293T cells; assay type: cell-based; details: control cells exposed to vehicle, absence of activator
Source text: A system was used based upon the expression of a fluorophore after nuclear translocation of a transactivator sequestered on the plasmatic membrane by a TEV recognition site (TEVcs).
In particular, the inventors made to express in HEK293T cells a “tetracycline operator EGFP conjugated” (tetO-EGFP) and a synthetic protein consisting of a transactivator controlled by tetracycline (tTA), bound to a transmembrane domain (TMD) through a TEV recognition site (TEVcs) (TMD-TEVcs-tTA) (FIG. 7).

B1: unica-TEV (unimolecular chemical-activatable TEV) (protein)
chain: GESLFKGPRDYNPISSTICHLTNESDGHTTSLYGIGFGPFIITNKHLFRRNNGTLLVQSLHGVFKVKNTTTLQQHLIDGRDMIIIRMPKDFPPFPQKLKFREPQREERICLVTTNFQTKSGGSTCVVHYTGMLEDGKKFDSSRDRNKPFKFMLGKQEVIRGWEEGVAQMSVGQRAKLTISPDYAYGATGHGSGSGSGVKDLLQAWDLYYHVFRRISGPPGPGSGLWHEMWHEGLEEASRLYFGERNVKGMFEVLEPLHAMMERGPQTLKETSFNQAYGRDLMEAQEWCRKYMKSGSSGGSGSGIIPPHATLVFDVELLKLEGGSMSSMVSDTSCTFPSSDGTFWKHWIQTKDGQCGNPLVSTRDGFIVGIHSASNFTNTNNYFASVPKNFMELLTNQEAQQWVSGWRLNADSVLWGGHKVFMVKPEEPFQPVKEATQLMN
in vitro protease test after immunoprecipitation of both proteins, with rapamycin, SDS-PAGE [1]: SDS-PAGE migration of pro-peptide was noted

B2: unica-TEV: engineered single-chain TEV protease with uniRapR domain inserted between S120 and M121, rapamycin-activable; SEQ ID Nr. 5 (protein)
chain: GESLFKGPRDYNPISSTICHLTNESDGHTTSLYGIGFGPFIITNKHLFRRNNGTLLVQSLHGVFKVKNTTTLQQHLIDGRDMIIIRMPKDFPPFPQKLKFREPQREERICLVTTNFQTKSGGSTCVVHYTGMLEDGKKFDSSRDRNKPFKFMLGKQEVIRGWEEGVAQMSVGQRAKLTISPDYAYGATGHGSGSGSGVKDLLQAWDLYYHVFRRISGPPGPGSGLWHEMWHEGLEEASRLYFGERNVKGMFEVLEPLHAMMERGPQTLKETSFNQAYGRDLMEAQEWCRKYMKSGSSGGSGSGIIPPHATLVFDVELLKLEGGSMSSMVSDTSCTFPSSDGTFWKHWIQTKDGQCGNPLVSTRDGFIVGIHSASNFTNTNNYFASVPKNFMELLTNQEAQQWVSGWRLNADSVLWGGHKVFMVKPEEPFQPVKEATQLMN
modifications: Peptide sequence of unica-TEV engineered protease (1)..(440)
cleavage of CFP-TEVcs-YFP (background activity) (CFP-TEVcs-YFP; in absence of rapamycin): absence of cleavage background
cleavage of CFP-TEVcs-YFP (CFP-TEVcs-YFP; in presence of rapamycin): identical cleavage profile
splitting of pro-TEVcs-BDNF in living cells by cytosolic protease ([2]; HEK293T, cytosolic localization of TEV protease): nor unica-TEV in presence of rapamycin, nor an active mutating form of TEV, split pro-TEVcs-BDNF
cleavage of pro-TEVcs-BDNF in vitro (pro-TEVcs-BDNF): SDS-PAGE migration of pro-peptide was noted
kcat/Km ratio unica-TEV/wtTEV [3]: 2.81

B3: purified mature BDNF: mature BDNF immunoprecipitated and purified from HEK293T cells co-transfected with unica-secTEV and treated with rapamycin (protein, UniProt P23560 129-247, looked up)
Neurotrophic factor BDNF: HSDPARRGELSVCDSISEWVTAADKKTAVDMSGGTVTVLEKVPVSKGQLKQYFYETKCNPMGYTKEGCRGIDKRHWNSQCRTTQSYVRALTMDSKKRIGWRFIRIDTSCVCTLTIKRGR
modifications: Neurotrophic factor BDNF
notes: mature BDNF immunoprecipitated and purified from HEK293T cells co-transfected with unica-secTEV and treated with rapamycin
ERK phosphorylation [4]: significant increase in ERK phosphorylation signals
ERK phosphorylation ([4]; listed as mature BNDF): induces a phosphorylation of ERK protein

B4: unica-secTEV: unica-TEV with N-terminal secretion signal and mutations for activity in the secretory pathway; SEQ ID Nr. 6 (protein)
chain: QGAQGESLFKGPRDYNPISSTICHLTQESDGHTTSLYGIGFGPFIITNKHLFRRNNGTLLVQSLHGVFKVKNTTTLQQHLIDGRDMIIIRMPKDFPPFPQKLKFREPQREERICLVTTNFQTKSGGSTCVVHYTGMLEDGKKFDSSRDRNKPFKFMLGKQEVIRGWEEGVAQMSVGQRAKLTISPDYAYGATGHGSGSGSGVKDLLQAWDLYYHVFRRISGPPGPGSGLWHEMWHEGLEEASRLYFGERNVKGMFEVLEPLHAMMERGPQTLKETSFNQAYGRDLMEAQEWCRKYMKSGSSGGSGSGIIPPHATLVFDVELLKLEGGSMSSMVSDTSSTFPSSDGTFWKHWIQTKDGQCGNPLVSTRDGFIVGIHSASNFGNTNNYFASVPKNFMELLTNQEAQQWVSGWRLNADSVLWGGHKVFMSKPEEPFQPVKEATQLMNEGGLE
modifications: left off: small tags and cut ends
ERK phosphorylation (TrkB): clear increase in the kinase phosphorylation
cleavage of pro-TEVcs-BDNF (background activity) ([2]; in absence of rapamycin, secretory pathway): absence of cleavage background
maturation (cleavage) of pro-TEVcs-BDNF in vital cells ([2]; in presence of rapamycin, secretory pathway, Western blot): 41-kDa band was noted designating BDNF maturation in the living cells and capability of unica-secTEV to make pro-TEVcs-BDNF to mature in vital cells
morphology of dendritic spines (CA1 pyramidal neurons): significant changes in the morphology of dendritic spines
volume of heads of dendritic spines (CA1 pyramidal neurons): increase in the volume of heads of dendritic spines
density of dendritic spines (CA1 pyramidal neurons; co-transfected pro-TEVcs-BDNF and dsRed2): significant increase in the density of dendritic spines

B5: unica-TEV without linker: unica-TEV construct with no linker (NL) between TEV and UniRapR (protein)
chain: GESLFKGPRDYNPISSTICHLTNESDGHTTSLYGIGFGPFIITNKHLFRRNNGTLLVQSLHGVFKVKNTTTLQQHLIDGRDMIIIRMPKDFPPFPQKLKFREPQREERICLVTTNFQTKSTCVVHYTGMLEDGKKFDSSRDRNKPFKFMLGKQEVIRGWEEGVAQMSVGQRAKLTISPDYAYGATGHGSGSGSGVKDLLQAWDLYYHVFRRISGPPGPGSGLWHEMWHEGLEEASRLYFGERNVKGMFEVLEPLHAMMERGPQTLKETSFNQAYGRDLMEAQEWCRKYMKSGSSGGSGSGIIPPHATLVFDVELLKLEMSSMVSDTSCTFPSSDGIFWKHWIQTKDGQCGSPLVSTRDGFIVGIHSASNFTNTNNYFTSVPKNFMELLTNQEAQQWVSGWRLNADSVLWGGHKVFMVKPEEPFQPVKEATQLMN
EGFP signal (background) (TMD-TEVcs-tTA): substantially lower
EGFP signal (background) (TMD-TEVcs-tTA; listed as NL construct): almost wholly absent
